What all share (assay): yeast two-hybrid, quantitative β-galactosidase assay
For assay [1], the target named is HK1a cytoplasmic part (HK1a-CP), LexA-based two-hybrid bait. The following applies: HK1a-CP as bait, HPt as prey, mean of at least four independent assays in triplicate, standard error bars, read off a plot.
The target of assay [2] is HK1a receiver domain (HK1a-RD), LexA-based two-hybrid bait. The following applies: HK1a-RD as bait, HPt as prey, mean of at least four independent assays in triplicate, standard error bars, read off a plot.
Assay [3] addresses HK1b cytoplasmic part (HK1b-CP), LexA-based two-hybrid fusion. Particulars: HK1b-CP as bait, HPt as prey, standard error bars, read off a plot.
In assay [4] the target is HK1b receiver domain (HK1b-RD), LexA-based two-hybrid bait. The following applies: HK1b-RD as bait, HPt as prey, standard error bars, read off a plot.

In the case of “HPt1, histidine-containing phosphotransfer protein 1 (two-hybrid prey) K33L; R74K; S77A”, the response (β-Galactosidase units) in assay [1] (parent: est. 4.2) was 5.5; in assay [2] (parent: est. 19) it was 33; in assay [3] (parent: est. 2.3), 3.7; in assay [4] (parent: est. 11), 16.
“HPt2, histidine-containing phosphotransfer protein 2 (two-hybrid prey) L32K; K73R; A76S”: the response (β-Galactosidase units) in assay [1] (parent: est. 71) was 32; in assay [2] (parent: est. 120), 95; in assay [3] (parent: est. 11), 7; in assay [4] (parent: est. 240) it was 210.
